Target: HLA-B*44:05 (Homo sapiens, UniProt P01889, A223V/A65T/A93T/A95T/D201E/D98Y/E176V/E187L/E204Q/E69K/G107R/H137Y/K202T/L105A/L119I/N104T/N87E/Q56L/Q94N/R106L/R155S/R180D/S101N/S121R/S35A/S48T/T118I/V36M/W191S/Y91S)
Assay: MHC binding assay (UV-ligand exchange, β2m ELISA, peptide exchange yield)
Conditions: binding to HLA-B*44:05
Method in brief: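 Binding is read as exchange yield, i.e. stabilized complex remaining after UV cleavage of a photolabile ligand in the presence of the candidate peptide. Streptavidin-captured monomers (100-fold dilution) are probed with HRP-anti-β2m, 1h at 37° C, TMB, A450. Standard curve: HLA-A*02:01/MLA-001 monomers at 15-500 ng/ml.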

## 382 (SELNPLALY; listed as Homo sapiens) [compound 382]
  Peptide exchange (MHC class I binding score, peptide exchange yield): +++ (>50 = +++)

## 136 (EEMPEEIHL; listed as Homo sapiens) [compound 136]
  Peptide exchange (MHC class I binding score, peptide exchange yield): +++ (>50 = +++)

## 385 (LEHPFLVNLW; listed as Homo sapiens) [compound 385]
  Peptide exchange (MHC class I binding score, peptide exchange yield): ++++ (>75% = ++++)

## 234 (TEEPQRLFY; listed as Homo sapiens) [compound 234]
  Peptide exchange (MHC class I binding score, peptide exchange yield): + (>10% = +)

## 326 (RELLDFSSW; listed as Homo sapiens) [compound 326]
  Peptide exchange (MHC class I binding score, peptide exchange yield): ++++ (>75% = ++++)

## 176 (GETQQHIQL; listed as Homo sapiens) [compound 176]
  Peptide exchange (MHC class I binding score, peptide exchange yield): +++ (>50 = +++)

## 292 (HELALRQTV; listed as Homo sapiens) [compound 292]
  Peptide exchange (MHC class I binding score, peptide exchange yield): ++++ (>75% = ++++)

## 345 (AEYQAAILHL; listed as Homo sapiens) [compound 345]
  Peptide exchange (MHC class I binding score, peptide exchange yield): +++ (>50 = +++)

## 417 (EESFRCLPEW; listed as Homo sapiens) [compound 417]
  Peptide exchange (MHC class I binding score, peptide exchange yield): ++++ (>75% = ++++)

## 307 (YEQLLKVVTW; listed as Homo sapiens) [compound 307]
  Peptide exchange (MHC class I binding score, peptide exchange yield): ++++ (>75% = ++++)

## 305 (AEKNRRDAETW; listed as Homo sapiens) [compound 305]
  Peptide exchange (MHC class I binding score, peptide exchange yield): ++++ (>75% = ++++)

## 371 (NEIGQELTGQEW; listed as Homo sapiens) [compound 371]
  Peptide exchange (MHC class I binding score, peptide exchange yield): ++++ (>75% = ++++)

## 207 (LEGGGRGGEF; listed as Homo sapiens) [compound 207]
  Peptide exchange (MHC class I binding score, peptide exchange yield): ++ (>20% = ++)

## 192 (LEIMTNLVTL; listed as Homo sapiens) [compound 192]
  Peptide exchange (MHC class I binding score, peptide exchange yield): ++++ (>75% = ++++)

## 352 (QEDELVKIRKY; listed as Homo sapiens) [compound 352]
  Peptide exchange (MHC class I binding score, peptide exchange yield): +++ (>50 = +++)

## 162 (EAYDIELNKW; listed as Homo sapiens) [compound 162]
  Peptide exchange (MHC class I binding score, peptide exchange yield): +++ (>50 = +++)

## 350 (EEMLENVSL; listed as Homo sapiens) [compound 350]
  Peptide exchange (MHC class I binding score, peptide exchange yield): +++ (>50 = +++)

## 226 (AEDNMVTSY; listed as Homo sapiens) [compound 226]
  Peptide exchange (MHC class I binding score, peptide exchange yield): +++ (>50 = +++)

## 441 (QEVAQVASAIL; listed as Homo sapiens) [compound 441]
  Peptide exchange (MHC class I binding score, peptide exchange yield): ++++ (>75% = ++++)

## 167 (AETENRYCV; listed as Homo sapiens) [compound 167]
  Peptide exchange (MHC class I binding score, peptide exchange yield): +++ (>50 = +++)

## 211 (LEMLDAHRL; listed as Homo sapiens) [compound 211]
  Peptide exchange (MHC class I binding score, peptide exchange yield): +++ (>50 = +++)

## 374 (NEAEWQEIL; listed as Homo sapiens) [compound 374]
  Peptide exchange (MHC class I binding score, peptide exchange yield): +++ (>50 = +++)

## 329 (SEPQITVNF; listed as Homo sapiens) [compound 329]
  Peptide exchange (MHC class I binding score, peptide exchange yield): +++ (>50 = +++)

## 248 (KESQLPTVMDF; listed as Homo sapiens) [compound 248]
  Peptide exchange (MHC class I binding score, peptide exchange yield): +++ (>50 = +++)

## 340 (GELAPSHGL; listed as Homo sapiens) [compound 340]
  Peptide exchange (MHC class I binding score, peptide exchange yield): +++ (>50 = +++)

## 132 (AESFTSGRHYW; listed as Homo sapiens) [compound 132]
  Peptide exchange (MHC class I binding score, peptide exchange yield): ++++ (>75% = ++++)

## 389 (DEQRRQNVAY; listed as Homo sapiens) [compound 389]
  Peptide exchange (MHC class I binding score, peptide exchange yield): ++ (>20% = ++)

## 314 (EMREERKF; listed as Homo sapiens) [compound 314]
  Peptide exchange (MHC class I binding score, peptide exchange yield): ++ (>20% = ++)

## 250 (AELDHLASL; listed as Homo sapiens) [compound 250]
  Peptide exchange (MHC class I binding score, peptide exchange yield): +++ (>50 = +++)

## 153 (IEIILLSGSL; listed as Homo sapiens) [compound 153]
  Peptide exchange (MHC class I binding score, peptide exchange yield): ++++ (>75% = ++++)

## 150 (SEVFHVSEA; listed as Homo sapiens) [compound 150]
  Peptide exchange (MHC class I binding score, peptide exchange yield): ++ (>20% = ++)

## 300 (KQTEATMTF; listed as Homo sapiens) [compound 300]
  Peptide exchange (MHC class I binding score, peptide exchange yield): ++ (>20% = ++)

## 375 (HEATFGEKRF; listed as Homo sapiens) [compound 375]
  Peptide exchange (MHC class I binding score, peptide exchange yield): +++ (>50 = +++)

## 404 (AEREQVIKL; listed as Homo sapiens) [compound 404]
  Peptide exchange (MHC class I binding score, peptide exchange yield): ++++ (>75% = ++++)

## 148 (KESDAGRYY; listed as Homo sapiens) [compound 148]
  Peptide exchange (MHC class I binding score, peptide exchange yield): +++ (>50 = +++)

## 241 (QELLDIANYL; listed as Homo sapiens) [compound 241]
  Peptide exchange (MHC class I binding score, peptide exchange yield): ++++ (>75% = ++++)

## 429 (RETEDYSKQAL; listed as Homo sapiens) [compound 429]
  Peptide exchange (MHC class I binding score, peptide exchange yield): ++ (>20% = ++)

## 86 (QTLKAMVQAW; listed as Homo sapiens) [compound 86]
  Peptide exchange (MHC class I binding score, peptide exchange yield): +++ (>50 = +++)

## 238 (VEDDNYKLSL; listed as Homo sapiens) [compound 238]
  Peptide exchange (MHC class I binding score, peptide exchange yield): +++ (>50 = +++)

## 233 (QEDKATQTL; listed as Homo sapiens) [compound 233]
  Peptide exchange (MHC class I binding score, peptide exchange yield): ++++ (>75% = ++++)

## 46 (SELGLPKEV; listed as Homo sapiens) [compound 46]
  Peptide exchange (MHC class I binding score, peptide exchange yield): ++ (>20% = ++)

## 335 (SETPTLQGL; listed as Homo sapiens) [compound 335]
  Peptide exchange (MHC class I binding score, peptide exchange yield): +++ (>50 = +++)

## 177 (LEEPMPFFY; listed as Homo sapiens) [compound 177]
  Peptide exchange (MHC class I binding score, peptide exchange yield): + (>10% = +)

## 121 (YENIPVDKV; listed as Homo sapiens) [compound 121]
  Peptide exchange (MHC class I binding score, peptide exchange yield): +++ (>50 = +++)

## 106 (SVISDSPRSW; listed as Homo sapiens) [compound 106]
  Peptide exchange (MHC class I binding score, peptide exchange yield): +++ (>50 = +++)

## 213 (DEDLFHKL; listed as Homo sapiens) [compound 213]
  Peptide exchange (MHC class I binding score, peptide exchange yield): ++ (>20% = ++)

## 208 (SEFLLRIF; listed as Homo sapiens) [compound 208]
  Peptide exchange (MHC class I binding score, peptide exchange yield): ++ (>20% = ++)

## 97 (ELVHMINW; listed as Homo sapiens) [compound 97]
  Peptide exchange (MHC class I binding score, peptide exchange yield): ++ (>20% = ++)

## 210 (AEGEPPPALAW; listed as Homo sapiens) [compound 210]
  Peptide exchange (MHC class I binding score, peptide exchange yield): +++ (>50 = +++)

## 368 (KEKVPGITI; listed as Homo sapiens) [compound 368]
  Peptide exchange (MHC class I binding score, peptide exchange yield): +++ (>50 = +++)

## 348 (SEVLLTSISTF; listed as Homo sapiens) [compound 348]
  Peptide exchange (MHC class I binding score, peptide exchange yield): ++++ (>75% = ++++)

## 1 (KEVDPASNTYTL; listed as Homo sapiens) [compound 1]
  Peptide exchange (MHC class I binding score, peptide exchange yield): ++ (>20% = ++)

## 154 (NEAGEMIKHY; listed as Homo sapiens) [compound 154]
  Peptide exchange (MHC class I binding score, peptide exchange yield): ++ (>20% = ++)

## 209 (AEGEPPPAL; listed as Homo sapiens) [compound 209]
  Peptide exchange (MHC class I binding score, peptide exchange yield): +++ (>50 = +++)

## 436 (AEADLSYTWDF; listed as Homo sapiens) [compound 436]
  Peptide exchange (MHC class I binding score, peptide exchange yield): +++ (>50 = +++)

## 65 (SESMVESKF; listed as Homo sapiens) [compound 65]
  Peptide exchange (MHC class I binding score, peptide exchange yield): ++ (>20% = ++)

## 296 (AETIFIVRL; listed as Homo sapiens) [compound 296]
  Peptide exchange (MHC class I binding score, peptide exchange yield): ++ (>20% = ++)

## 26 (EESSSPVDEY; listed as Homo sapiens) [compound 26]
  Peptide exchange (MHC class I binding score, peptide exchange yield): ++ (>20% = ++)

## 275 (GEQPPEGQW; listed as Homo sapiens) [compound 275]
  Peptide exchange (MHC class I binding score, peptide exchange yield): +++ (>50 = +++)

## 237 (QEIGQKTSV; listed as Homo sapiens) [compound 237]
  Peptide exchange (MHC class I binding score, peptide exchange yield): +++ (>50 = +++)

## 130 (REYQEVMNSKL; listed as Homo sapiens) [compound 130]
  Peptide exchange (MHC class I binding score, peptide exchange yield): +++ (>50 = +++)

— patent publication US12065471B2, “B*44 restricted peptides for use in immunotherapy against cancers and related methods” (Immatics Biotechnologies GmbH, priority 2018, dated 2024)
